Assay: label from the status in PepcDB records
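Note: failed if final PepcDB status was selected cloned or expressed and not failed if soluble or beyond.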

| Sequence | protein production |
| --- | --- |
| MSDNNDRMYELEYPSPEVSGQTAGGPTLIVALQGYADAGHAVESSSSHLMDALDHRLIASFNNDELIDYRSRRPVVVIEHNEVTSMDELNLGLHVVRDNDNKPFLMLSGPEPDLRWGDFSNAVVDLVEKFGVENTICLYAAPMTVPHTRPTVVTAHGNSTDRLKDQVSLDTRMTVPGSASLMLEKLLKDKGKNVSGYTVHVPHYVSASPYPAATLKLLQSIADSADLNLPLLALERDAEKVHRQLMEQTEESSEIQRVVGALEQQYDSELERYRNRHPQAVMPGESELPSGDEIGAEFEKFLADLDDQGGSDHKETPEA | not failed |
| MTPSAITLCFLIFAILMFALEKLPLAVTAMIVTVGLAVTGVLPAKEAFLGFVDTNVILFVAMFVIGGALFETGMANKIGGVVSRFAKSERQLMVVLMLITGLMSGILSNTGTSAILIPVILGIAMKSDFARSRLLMPMAFASTLGGNLSLIGSPNNLVVQGVLSQTGLKFGFFEYAKIGLPLLIVGILYFVFIGYRFLPQTLNTHVKKQDYHAFHHHHNIIPKWKQWLSLCVLIATLFAMVFEEVIGIKLYISACIGALILVIMRVITEKQAYQAIDSQVVFLFAGTLALADALKRTGAGADIAHSILSLLGDHPSTTALLLTILLLSCLLTNFMSNTATAALLAPIGLSIANSLNADPRAVLMAVVIGSSCAFATPIATPANTMILSVGQYKFTDYTKAGIPLIIISVLLSMLLLPIFFPLFL | failed |
| MIQMVKRVHIFDWHKEHARKIEEFAGWEMPIWYSSIKEEHLAVRNAVGIFDVSHMGEIVFRGKDALKFLQYVTTNDISKPPAISGTYTLVLNERGAIKDETLVFNMGNNEYLMICDSDAFEKLYAWFTYLKRTIEQFTKLDLEIELKTYDIAMFAVQGPKARDLAKDLFGIDINEMWWFQARWVELDGIKMLLSRSGYTGENGFEVYIEDANPYHPDESKRGEPEKALHVWERILEEGKKYGIKPCGLGARDTLRLEAGYTLYGNETKELQLLSTDIDEVTPLQANLEFAIYWDKDFIGKDALLKQKERGVGRKLVHFKMIDKGIPREGYKVYANGEMIGEVTSGTLSPLLNVGIGIAFVKEEYAKPGIEIEVEIRGQRKKAVTVTPPFYDPKKYGLFRET | not failed |
| MANKNFSLTVYDSEYMETNNKIYQENMEKKIRTISEFPDKVLLKILSLLPSKDVVATGVLSKRWRSLWKDVKTFRTSSVESLQLKINPSATNKDIQSLVNMAVARSMRELRIEMICKNFELPKSFYMFSQLETVILDKVSLMDPPPDVHLPCLKRLHLLSVNSLTNVMIFTIDVPTLRILSIDNTSGKSRPKGVHGFVINTPSLSVNVVFDNPYKFLAPLGSTQYLSLCSVTSHTTYRPAVFSFIFLDHLELCLCSAEQWNLLTRILNYAPRLRVLQLKLYHKHCVKDTKNLMGNQPDLIPKSLSSHLEILEWRQYNDTAQEREAAKYILANASGLRKATFYTESTEKHGMLKEVRMCGQRFKNMSACVK | failed |
| MSDRLANQIAAGEVVQRPASVAKELIENALDAGASSIEVLLKDAGSTLVQVIDDGCGMGPGDAERCFERHATSKLRSVDDLERIRTLGFRGEALASIAAVAQVTLKTKRVEDDAGTLVRVEGGEQVEKRPCAIPNGTSVAVRNLFFNVPARRNFLKTPATELKHLTQTVQSLALANPDTAVRLEHDGHEHYDLPAAPDSDWHAATRARILGLFGGDHEDELVAVEDESSDLRLRGFVGAPSFHRKTRGEQFLFVNGRAVTDRYLSHAVKKAYGELVPDGAFPFFALFLAMNPERVDVNVHPQKEEVKFDDQSGIYGFLRSAVRRALGRVHVSPQMDDGDDEADNEEDSPGPESDGTGSGGHAVSGDGTSSPRPTPTSFQPQRSSGDATDSSGRSSSGPSPQSPKPRPENPSVSPGDQSDALYRRPDGGDESSPGDAPASPPHREGGSSSTSAADEAERSGRRPVWGLHDTYVVTPTETGMMLVDQRAAHLRVLYERARAHLRDQQGASQRLLFPHTVDLSPAEVELLDELRDDLDALGFELERLSGRTVSVRGVPADVPDGNEDTILEELLEQYRSAQDAVEDERREHLAKTMAQRSAVDRGQPLSEEERRALLDDLFDCEMPYADPTGTPTIVKLSMEELADRFGR | failed |
| MSVEIKRVDKHHCLDLVGIFIELERYYFGDKAASEQDLANYLSHQVFSEHSGVKVIAAVEHDKVLGFATYTIMFPAPKLSGQMYMKDLFVSSSARGKGIGLQLMKHLATIAITHNCQRLDWTAESTNPTAGKFYKSIGASLIREKEYYRFEGNGLNKLAKSL | not failed |
| MGKVYKKVELVGTSEEGLEAAIQAALARARKTLRHLDWFEVKEIRGTIGEAGVKEYQVVLEVGFRLEET | not failed |
| MSEDLMDLSPEEGIERFLRHREPSVRESTMRNAKTRLRFFNEWCEERDIENLNNLTGRDLADFVAWRRGDIAALTLQKQLSTIREALRYWADIEGVDDGLAEKVHAPELPDGAESREVHLSADRAHQILDFLHDYRYASRDHVVFLILWKTAMRRSALRSLDVDDLRPDDYALVLEHRIDEGTKLKNGEDGERWVYLGPSDYQVVDDYLDNPDRYERTDDYGRKPLITSQHGRPAGDTIYKWVNKLTQPCVLNGCPHDADPSDPSTCEALGSRAAHSKCPSSRSPHGLRRGSITYHLNSDVSPEIVSERCDVSLEVLYEHYDVRTNQEKMAVRKKQLERI | failed |
| SSNYPRCWNCGGPWGPGREDRFFCPQCRALQAPDPTRDYFSLMDCNRSFRVDTAKLQHRYQQLQRLVHPDFFSQRSQTEKDFSEKHSTLVNDAYKTLLAPLSRGLYLLKLHGIEIPERTDYEMDRQFLIEIMEINEKLAEAESEAAMKEIESIVKAKQKEFTDNVSSAFEQDDFEEAKEILTKMRYFSNIEEKIKLKKIPL | failed |
| MPVSIFMTVVNKSGVLARVTAEIAKADSNIDDITLENDKDYTTMRFILQTRDRQHLAQIFRRLKHIDEIVKMGRIKNLLEHHHHHH | not failed |
| MAQRGDPPPLRQYVAVRARLVGSGLVVGLLLGGLGMAGWTLYTGDARSSEATVFALGAMVFGFGLLGWSGSILAGRGIEAMQEHMDTRSNWTERDSRRAMARLCGGGGGIMVGTSVVAALL | failed |
| SLPMQHVHTSPVRDYRNRCARREGETVFQVVVEETDLRVTALAELATPMAAYVGELRAQLKVWMEFQPAFRHSLVPVEVPEGAPEVVRRMAHGARLVGVGPFAAVAGTIAQMVAERFVDVSPELIVENGGDLYLYSERDRVVGILPDPASGDMVGILVRAGTAPVSLCGSSARIGHSLSLGDGDLAVVRARDASLADAAATAFGNMLRRADDVAAVTERAAQLASIGIEGVYAQCGGRIGIWGDMELAVA | not failed |
| MIQLVIRLGLLALLIFWTLYLIRPFVTILVWALVLAVAFNPIFLVLAKILGGRAKLAAGLLTAINLAIVIGPAAWLGLGAVDGIRDFAGELAAGDLVIPSPPAAIKTWPLIGTPLYEFWDQASTNLRSVVQRIAPYLKPFAGTLLGIAGDAGVGTIKFLLSVVVAGCLFPYGPQLVAAGRSFLSRIVPEQSEHFLDLAGATIRAVAQGVIGIAVVQALLAGIGFKLAGIPIAGLLALLVLLLSIVQIGGAIIMLPVMIWIWTDKDVTVAVLLTLFLGIVSILDNILKPLVMGRGLTTPALVILIGVIGGTLGHGIVGLFIGPIVLSVAWELTVAWIRTDRASAASQATIDR | failed |
| MENEENSAREQEADDFLHIASVKEDWGGDGRGRMNLSGRRTAIAKEYLPRQYQFFDTNTVMEKQGWRVRGMPDNIAPGSRRLLTWHDSGASTSRVVLPPKFEAPSGIFTADLEIFVIKGAIQLGEWQLNKHSYSFIPAGVRIGSWKVLGGEEAEILWMENGSVPLEYKYAQEDHPDARLSDFIPALDSKLLPWGKADTVQFVQANKKWLRKDINGGGVWLLAILPHFDNKYQMIQPYNEEGYCLTGYCDVGDYRIVKDHYWYCPSFSTLPRHITDDGGLFFVRVDRDLSKVATVLSYAPQDT | not failed |
| MTIKRIFCDMDGTLLNSEGQVSKSNATLIREAAIPVTLVSARAPMEMKDAVDALQLGGVQVAFNGGLIYRIGDNNQVLPIHTQIIKKSTVKQLLRGIRFHFPQVSLSYYDLNNWYCDKIDEGIRYEHSLTQQCPTFIHNEDQFLEGHTNTFKIMMITFDEANMLELEKYLQSLELPEITIQRSGKAYLEITHLLAKKSKGIAYILQKEQLAREETAAFGDGHNDLPMLEMVGYPIVMDNAFDDIKAIAYQLTKSNDEDGVGYGIQKFLK | failed |
| MTYVLYGIKACDTMKKARTWLDEHKVAYDFHDYKAVGIDREHLRRWCAEHGWQTVLNRAGTTFRKLDEAQKADLDEAKAIELMLAQPSMIKRPVLELGGRTLVGFKPDAYAAALA | not failed |
| MFHKALITFIVLWFFLNGLGAYDFKHCQAFFKKASLQKGGVALKELPKGVYLYYSKTYPKHAKVIKSDPFVGLYLLQSAPSEYVYTLRDLDKDALIRPMASIGDKEALETRLLVGQRGYERYAQISQKTQKNGVISNICYQMLGLGVGGNGFIETKFIKRFLNQQEPYYGDIGVRLEEHHKRLVVVQFDPFFPKNPFLKNDEILAINHQKIHSLAEFEWVVSNLKYQSLAKVEIKRNHKVKEVTLKVNKRYGGFLLKDTFLERYGIALDERFIITKIGAHLPKGLDFLKLGDRILWVNYKSVASNPKALREALSAPKIELLVLRKGFEFYIKVR | failed |
| MLYVVGIGPGNEEYFTKEAENALNSVDLIVCYTGYKKYIERFDTEIYVSGMTKEVERVEYALKEAENKNVALVSNGDATIYGLASLAYELNEKNLHNVTINVVSGL | failed |
| EELEYKGMNTLQISNVDDLISFYQYADDRIPLISGHRGGRGKGYPENSMETFENTLSYTPATFEIDPRLTKDSVIVLFHDDTLERTSNGTGKVSDYTWEELQNFRLKDPEGNITNYRIPTLEEAIRWARGKTILILDKKDVPMERTAQLITDMQAEPYVMITVHDGASARFFYEKNPNFMFEAFVKTKEAVQDYEDNGIPWSHIMAYVGPKITPEVREVIDMLHERGVMCMISTAPSDDKLSTPESRAEAYRMIIRQGVDIIESDRPIEVAEAISSLIPVSSSKGKFFSTL | not failed |
| MNLDTPLADGLERAKRFEQGLQQVVLGQERPIRLLTLAVFARGHALLEGGVGVGKTTLLRAVARGIGGDYERIEGTIDLMPNDLVYYTYLDEQGRPGVAPGPLLKHGEQLSIFFFNEINRARPQVHSLLLRVMAERSVSAFNREYRFPYLQVFADRNRVEKEETFELPAAARDRFMLEIAIEPPADPAHIDQILFDPRFYDPDRLVASAPADTLSFRELNGIAEALQGGIHVSARLRSYVQDLWRATRRPEDFGIALHEADSGDMIEAGSSPRGMSYLVRLARVQAWLSGRDRVEPEDVQYVFAPAVGHRIFLKPVYEYRRAELIPELVGKLIRRIAAPLEHHHHHH | failed |
| MMSAVPVSLPVKMLVTRHISPDRYGDFLAWMRQGEILAAGFPGFLGSGVLQPPEGGDQYQIVLRFDSEASLARWEQSLPRRMWLERGAALVRASHARRVTGMDSWFGAPAGAPPRWKQAVSIWLVYFPMLLLFSTALDAQLNALPLFWRVLATTLCMTPVLSFLCIPLVTRVLRGWLHPRAVGAAD | failed |
| MPKEQPLYLQIVDDLEVKIKKSMTENDKLLSERELSDLYGVSRITIRLTLKELELRDLIYKKQGKGTYVSGIKEPATDLSSTYSFTEQMKKMGKTPKTEILSFEQYQVTPYLSGLLELDPDTEVFELERLRIADDMPLMFERSYIPAQPFQGLSIADLKRKALYDIFAKDYQETIRLAEEEFYASIALDYEAGLLGIKKGDPVLHIIRKTYNDKNILIELTFSIARADQFRYRVQHHPNG | failed |
